Measurements as given in the DeepSol protein solubility set.

Assay: soluble on expression in E. coli; label from the status in PepcDB or PDB records

| Sequence | soluble on expression in E. coli |
| --- | --- |
| MSLNAHLSAAWPVPVSVAPDALAEIQADFSREWLRLCDEAKRGVLGAPADKRFAGAAWLDDRQRLLMAHAYLLSARAMARLVEAAQVSEPMRNRLRFSVMQWVDAMSPANFLAFNPDAQRAIVESAGRTLQEGMANLLNDIQRGRISQTDETQFEIGRNVATTPGHVVFENSLMQLIQYAPQTAKVCERPLVIVPPNINKYYILDLQPENSFVRYAVEQGHTVFIISWRNPLAADTDGVDTATWSEYLDDAVLKALAVASDISGQPQVNALGFCVGGTMLASALALAQARGERPVASLTLLTSLLDFHDTGILKVFVDEAHALLRDHQYGQRGLMPARDLATTFSFLRPNELVWNYVVSNYLKGKTPPAFDLLFWNADSTNLPGPFFAWYFRNTYLENNLKVPGRARAAGVPLDLTRLDMPAYLYGSREDHIVPWPSAYASTQLLRGPMRFVLGASGHIAGVINPPAKQRRSYWVNESAGEGHHHHHH | not soluble |
| MGSDKIHHHHHHMNIEKTRFCINRKIAPGLSIEAFFRLVKRLEFNKVELRNDMPSGSVTDDLNYNQVRNLAEKYGLEIVTINAVYPFNQLTEEVVKKTEGLLRDAQGVGARALVLCPLNDGTIVPPEVTVEAIKRLSDLFARYDIQGLVEPLGFRVSSLRSAVWAQQLIREAGSPFKVLLDTFHHHLYEEAEKEFASRIDISAIGLVHLSGVEDTRPTEALADEQRIMLSEKDVMQNYQQVQRLENMGYRGIYAFEPFSSQLASWSEAEIEEQINRSVSLLLQ | not soluble |
| MADDVDNDDKLEKPVDLIWGCELNEQNKTFEFKVEDDEEKCEHQLALRTVCLGDKAKDEFHIVEIVDQEEGAEKVVPIATLKPSILPMATMVGIELDPPVTFRLKAGSGPLYISGQHVAM | soluble |
| MGSDKIHHHHHHMKEVLEVLPKTMKQLVENCKQYDALEEIRVRIGRPLECIAHGEVFFYDYIVTADDAIYLLNKLSHFSIYTMEEELKRGYVTLRGGHRIGLAGKVITEKSTVKMIRDVSSFNIRIARQKIGIAEPLLPYLYESRWLNTMVIGPPQTGKTTLLRDVARCMSQGVSTSKIPSCKVGIVDERSEIAGCVKGIPQYDFGTRVDVLDACPKAEGMMMMIRSMSPDILIVDEIGRKEDSEAIMEAVHAGVQLFISAHGFSYDDVVKRPSLKAVLELGIFDRFVELSKARGPGTVMQVKDKYGKPVLPHRKAESVC | not soluble |
| MFKNEDAKATGTSEMAPALVAAFGGKENITNLDACITRLRVSVADVSKVDQAGLKKLGAAGVVVAGSGVQAIFGTKSDNLKTEMDEYIRNFGSRSHHHHHH | soluble |
| GHMDVGERSSDQGTTVLTEAQRIDWMRLIRAENVGPRTFRSLINHFGSARAALERLPELARRGGAARAGRIPSEDEARREIEAGRRIGVELVAPGETGYPTRLATIDDAPPLLGVHALPEALAVMARPMIAIVGSRNASGAGLKFAGQLAADLGAAGFVVISGLARGIDQAAHRASLSSGTVAVLAGGHDKIYPAEHEDLLLDIIQTRGAAISEMPLGHVPRGKDFPRRNRLISGASVGVAVIEAAYRSGSLITARRAADQGREVFAVPGSPLDPRAAGTNDLIKQGATLITSASDIVEAVASILERPIELPGREPEHAPPEGEPDTGDRTRILALLGPSPVGIDDLIRLSGISPAVVRTILLELELAGRLERHGGSLVSLS | soluble |
| MAHHHHHHMKGVSIRQLDAIIILDSDGKRIAVKYYNDQFLPKGESKLIHKSPSRDSISYPFEDTYNNLRTVEDQKMFENDITEKARKLGGNSSETEVLILSKFTVLYLLINDVSIYIVGDEGDNEIILHEIMQTVQQCLESVTNNQIGRKQLLEKLDSIYLILDEIADSGIIMETNPNVIINRLYMHESDLQEHTPLNQAISSAKENIIRSLLSGT | soluble |
| MVHNFRNDITVDWCPGCGDFGILTALTSALSELNLGSHDVAIISGIGCSGKTPHYVNAAGAHTLHGRAIPVAVGVKLTNPHLKVIVTGGDGDLMSIGAGHLVAEGRRNSGITVLMYDNAVYGLTKGQAAPTLKLGVQTKSLARPNIYDAINPIMLAISSGYSFVARGFSFEIAHLKNIIKQAIMFPGSSFIDILQPCPTYNNINTMDWYKKRVYKLDDDKSWDPVITENDPKAEEKYNKAIEKSFEWGDKIPIGVFYVNKKVPPFTERLKQYVDNYEQIPPAVQDVSTEDGKPILDPFETFKDKI | not soluble |
| MSTNPGPAEGANQVMAQEHSAGAVQFTAHNVRLDDGTLTIPESSRTLDESSWFISARGILETVFPGDKSHLRLADVGCLEGGYAVGFARMGFQVLGIEVRELNMAACNYIKSKTNLPNLRFVHDNALNIANHGLFDTVFCCGLFYHLENPKQYLETLSSVTNKLLILQTHFSIINRSDKWLRLPTTARQLTDRLLRRPAPVKFMLSAPTEHEGLPGRWFTEFSDDRSFGQRDTAKWASWDNRRSFWIQREHLLQAIKDVGVDLVMEEYDNLEPSIAESLLGGSYAANLRGTFIGIKTR | soluble |
| MSLDEIKIEKLKKLDKKALNELIDVYMSGYEGLEEYGGEGRDYARNYIKWCWKKASDGFFVAKVGDKIVGFIVCDKDWFSKYEGRIVGAIHEFVVDKKFQGKGIGRKLLITCLDFLGKYNDTIELWVGEKNYGAMNLYEKFGFKKVGKSGIWVRMIKRQNLEGHHHHHH | soluble |
| MGSDKIHHHHHHMMTYRDAWFELALLTNGRSFPRHTHDEFVISANLSGMETVWLDGETFVATNDMVTTYNPNQLQGSDNAFDRWQCASLYVHPQAFEHYFHQTFLFSQGWNPSAQLASELKQLVTSDLDDSARQERIILLLAGLMEGQHRMLPQSQVKEAERITRIKEGLLNDLSEVPTLDQLAQQESLSVAHLVRSFNQAVGLPPLAWLMQRRMCKARELLRQGTAISQVAGDVGFADQAHFTKAFNRYNAMTPGQFRRINF | not soluble |
| MSLSKKSILLLCCSLCFISATKAVTPVRNVRNSQVNSKAKTERTKPSDSVRYISNMIADRLEFRNKISSEKEVRKAEYENRLAMEALNYPAIDLYGEDSWSEYVNPFVGAGTDVEIPNSYDIDCSSFVMPVEDKQVTSQFGYRRRFGRMHYGIDLSVNRGDTIRAAFDGKVRVRSYEARGYGYYIVLRHPNGLETVYGHMSRQLVDENQIVRAGQPIGLGGSTGRSTGPHLHFETRFMGIPINPSTIIDFDNGVPLRDIYTFKRGSNSRYAKASKTSSRYAKKGKKGRQASSPMTYRIKKGDTLETIAKRHGTSVQKLCATNGIGKSKILTPGKALRIKEGHHHHHH | soluble |
| MDHLKHLQQLQNIERIVLSGIVLANHKIEEVHSVLEPSDFYYPPNGLFFEIALKLHEEDCPIDENFIRQKMPKDKQIKEEDLVAIFAASPIDNIEAYVEEIKNASIKRKLFGLANTIREQALESAQKSSDILGAVEREVYALLNGSTIEGFRNIKEVLESAMDLITENQRKGSLEVTGIPTGFVQLDNYTSGFNKGSLVIIGARPSMGKTSLMMNMVLSALNDDRGVAVFSLEMSAEQLALRALSDLTSINMHDLESGRLDDDQWENLAKCFDHLSQKKLFFYDKSYVRIEQIRLQLRKLKSQHKELGIAFIDYLQLMSGSKATKERHEQIAEISRELKTLARELEIPIIALVQLNRSLENRDDKRPILSDIKDSGGIEQDADIVLFLYRGYIYQMRAEDNKIDKLKKEGKIEEAQELYLKVNEERRIHKQNGSIEEAEIIVAKNRNGATGTVYTRFNAPFTRYEDMPIDSHLEEGQETKVDYDIVTT | not soluble |
| MGSDKIHHHHHHMKIIDGNIASPLGFSADGLHAGFKKRKKDFGWIVSEVPASVAGVYTTNKVIAAPLIVTRESVKKAQKMQALVVNSGVANSCTGLQGMEDAYTMQKWTATKLKIAPELVGVASTGVIGDLMPMDTLQKGLSKLVVNGNSDDFAQAILTTDTKVKTVAVTEQFGRDEVTMAGVAKGSGMIHPNMATMLAFITCDAVISSETLQLALSQNVETTFNQITVDGDTSTNDMVLVLSNGCTLNKEILPDTPEFDKFSAMLHFVMQELAKKIAKDGEGATKLIEVEVINAPNSLDACMMAKSVVGSSLVKTAIFGEDPNWGRILAAVGYAGVDVPVDNIDIYLADIPVMLASSPVDFDEEDMQDVMRADTIKIIVDLHAGDSVGKAWGCDLSYDYVKINALYRT | not soluble |
| MGKEVMGKKENEMAQEKERPAGSQSLFRGLMLIEILSNYPNGCPLAHLSELAGLNKSTVHRLLQGLQSCGYVTTAPAAGSYRLTTKFIAVGQKALSSLNIIHIAAPHLEALNIATGETINFSSREDDHAILIYKLEPTTGMLRTRAYIGQHMPLYCSAMGKIYMAFGHPDYVKSYWESHQHEIQPLTRNTITELPAMFDELAHIRESGAAMDREENELGVSCIAVPVFDIHGRVPYAVSISLSTSRLKQVGEKNLLKPLRETAQAISNELGFTVRDDLGAIT | soluble |
| MGSDKIHHHHHHMTLKKLRANDRMKQIMAGYYMMGNQAEVKGWITSGAPVELLYAMDIYPVYPENHGALIGAAKQGPYFSDFAERKGFSRDLCSYARCDIGCVFAGTSPIGGLPEPTFLFACNNICNTVVKWYEVLSRIFKVPLFVLDTPFVRKELKESYVKYVHDQLYEFVDFLEKTTGRELSDSKLRDTVIKSIQGVKAYAEVLGMARHKPSPLTCFDAFINMAPIVCLRGTDYPVQFYAEMKEELEERVKRGEGAIENEEIRLLWDNIPVWYRLKWFSEFFAERNACLVADTYTNAWTGFISIDKSDIFWSMAETYTFIYLNIGLEHMAEAINRLIDYYDVDGAVIHSNRSCKPYSFGQYELQKMIEVPSVIIEADMVDSRTFSEAQVETRLEAFLEMLR | not soluble |
| MAHHHHHHMLQWEWPTSLCAERRELIRAAVERAIRNSMAEGSDGQIRGTVNVDELNLGSNPPEVTLSGIRMLSAERTVIMVKVRYTGDFFIRLSGLEVNLDMVGSGAEEADNNFALPFFCPFEMTLRDILIDGMVAIEILQELEENVQWGKCADVPVAPLATTVRSRKNTNGMRPPCRAGTPSTRHRSGYGVLLGGGGRGAMRLPGVLDSIDGSLSSVDMEGASEGHPRHSLRVRNVSPPFFDILSTKVLVKQRVVKMQLFGDPLKSFRVLSNFGSVQGADCKAEQTIRKLIKPAIEQLIEEGIIFNI | not soluble |
| MGSDKIHHHHHHMKVSVVILNWNGCDMLRTFLPSVIRYSKSEEVEVCVADNGSTDASVEMLREEFPCVRIIVLDQNHGFADGYNLALQQVEAEYVVLLNSDVEVTEHWLEPMISYLDGHPEVAACQPKIRSQRQKEYFEYAGAAGGFIDKYGYPFCRGRIMGVVEKDEGQYDTILPVFWATGAALFIRHADYREAGGLDGRFFAHMEEIDLCWRLRSRGREIVCIPQSTVYHVGGATLKKENPRKTFLNFRNNLVMLYKNLSDEELNKVMRIRTCLDYVAAFTFLLKGQLDNARAVMRARKEYKQICPSFSSSRKENLRKTSLNPIPERIKSSILWQFYVGGCKRFSQLSDLKG | not soluble |
| MLHFYQAVAQLMEHIRGAKAHDVRFTQPLADKPPFALIDWLDAQPIFPKFYWQSRDTREEVVALGQVYTFTDPAPAYAILGDEQRVWGGRSFDGHTAKNPRCMSSFFFLPQIELIRRDEQWLLAVNINNEPQRTLTALQKLLVEVPTLRSMTAHVTRVEHTPTAANWHDLVEKVLAGITEKQFKKVVLARKTTLTLDAPLSAAQLLKASHAQNHHSFHFLLALDSRHSFMGSTPERLYLRHGQNLETEALAGTIGRGANATQDMELAHWLTHDSKNLNENQLVVEDIIESLAPHAEQIHTQREAQLVRLRKVQHLKKRIDAQLKSGVNGVQLLGVLQPTAAVAGLPRQAALAFIAENEPFARGWYAGSMGYFSHAQAEFCVAIRSALVVDKQVQLYAGAGIVPGSIAEHEWQELDKKLSTLLSLITDRLPLGVAS | not soluble |
| SLYRIVLGKVSTLSAAPLPPGLREQAPQGPRRERWLAGRALLSHTLSPLPEIIYGEQGKPAFAPETPLWFNLSHSGDDIALLLSDEGEVGCDIEVIRPRANWRWLANAVFSLGEHAEMDAVHPDQQLEMFWRIWTRKEAIVKQRGGSAWQIVSVDSTYHSSLSVSHCQLENLSLAICTPTPFTLTADSVQWIDSVN | not soluble |
